Source: patent US20240261333A1 (published 2024)

What was measured:
Experiment in all cases: co-IP, anti-FLAG, lysate of cells with N-FLAG B3GNT2; mass spectrometry
ARPC4 = ARPC4 (human, UniProt P59998 2-187)
PUM1 = target: T1, PUM1 (human, UniProt Q14671-3 2-1188, limits assumed)
T1 construct: also called NP_00108494.1 (+1)
T1 sequence (looked up): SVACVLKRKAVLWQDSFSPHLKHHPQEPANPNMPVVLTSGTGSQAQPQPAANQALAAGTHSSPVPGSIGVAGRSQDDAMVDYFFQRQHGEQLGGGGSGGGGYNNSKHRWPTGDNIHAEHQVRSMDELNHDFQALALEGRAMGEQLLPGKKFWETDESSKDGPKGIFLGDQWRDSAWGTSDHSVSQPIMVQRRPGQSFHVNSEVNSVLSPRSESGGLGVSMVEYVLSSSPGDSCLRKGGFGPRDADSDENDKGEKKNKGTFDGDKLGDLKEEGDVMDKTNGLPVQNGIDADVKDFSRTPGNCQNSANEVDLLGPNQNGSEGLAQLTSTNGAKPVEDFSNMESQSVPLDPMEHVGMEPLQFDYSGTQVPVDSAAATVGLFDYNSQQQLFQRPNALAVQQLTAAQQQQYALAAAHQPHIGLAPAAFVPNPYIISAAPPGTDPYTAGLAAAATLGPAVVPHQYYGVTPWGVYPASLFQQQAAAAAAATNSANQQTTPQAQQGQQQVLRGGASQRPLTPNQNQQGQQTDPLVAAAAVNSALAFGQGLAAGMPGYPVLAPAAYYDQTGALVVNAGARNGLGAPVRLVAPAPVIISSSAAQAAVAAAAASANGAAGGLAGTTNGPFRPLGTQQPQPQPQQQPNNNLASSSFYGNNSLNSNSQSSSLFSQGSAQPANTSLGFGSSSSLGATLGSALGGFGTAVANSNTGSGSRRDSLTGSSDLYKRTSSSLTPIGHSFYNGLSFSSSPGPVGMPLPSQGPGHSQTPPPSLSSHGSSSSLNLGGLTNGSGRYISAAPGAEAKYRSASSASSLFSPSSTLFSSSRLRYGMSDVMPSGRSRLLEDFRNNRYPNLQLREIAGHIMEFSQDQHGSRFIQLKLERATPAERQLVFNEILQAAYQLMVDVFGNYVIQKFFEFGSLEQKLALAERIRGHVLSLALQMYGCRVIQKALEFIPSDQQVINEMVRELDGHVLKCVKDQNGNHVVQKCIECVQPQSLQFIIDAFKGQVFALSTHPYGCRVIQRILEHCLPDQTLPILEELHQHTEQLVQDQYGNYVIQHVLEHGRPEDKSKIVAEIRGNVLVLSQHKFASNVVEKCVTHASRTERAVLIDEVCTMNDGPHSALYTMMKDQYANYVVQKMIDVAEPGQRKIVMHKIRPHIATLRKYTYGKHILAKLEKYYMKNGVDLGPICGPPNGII

RPS3 = RPS3 (human, UniProt P23396 2-243)
LSM12 = target: T2, LSM12 (human, UniProt Q3MHD2 2-195)
T2 construct: also called NP_689557.1
T2 sequence (Q3MHD2 2-195 limits assumed): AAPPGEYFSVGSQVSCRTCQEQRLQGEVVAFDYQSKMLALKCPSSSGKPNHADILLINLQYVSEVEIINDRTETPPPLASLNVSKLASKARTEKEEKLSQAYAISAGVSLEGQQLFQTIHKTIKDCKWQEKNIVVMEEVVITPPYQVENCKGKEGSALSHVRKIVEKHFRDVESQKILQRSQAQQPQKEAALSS

KRT6B = target: T3, KRT6B (human, UniProt P04259 2-564)
T3 construct: also called NP_00546.2
T3 sequence (looked up): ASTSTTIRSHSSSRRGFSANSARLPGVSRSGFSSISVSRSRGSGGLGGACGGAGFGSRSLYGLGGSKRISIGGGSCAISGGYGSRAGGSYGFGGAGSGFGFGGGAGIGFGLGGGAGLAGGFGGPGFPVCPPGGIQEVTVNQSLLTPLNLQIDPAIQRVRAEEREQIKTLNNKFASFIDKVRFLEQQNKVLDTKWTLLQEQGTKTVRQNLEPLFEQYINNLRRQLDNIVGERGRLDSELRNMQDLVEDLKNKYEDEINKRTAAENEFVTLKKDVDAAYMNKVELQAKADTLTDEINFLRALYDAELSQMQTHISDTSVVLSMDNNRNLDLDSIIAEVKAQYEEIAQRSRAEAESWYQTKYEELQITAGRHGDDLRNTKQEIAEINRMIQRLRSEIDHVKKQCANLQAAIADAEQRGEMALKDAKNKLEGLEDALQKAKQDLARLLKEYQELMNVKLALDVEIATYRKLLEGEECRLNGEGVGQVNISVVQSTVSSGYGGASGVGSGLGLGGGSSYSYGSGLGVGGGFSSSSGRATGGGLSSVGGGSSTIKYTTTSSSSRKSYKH

PARP1 = target: T4, PARP1 (human, UniProt P09874 2-1014)
T4 construct: also called NP_001609.2
T4 sequence (P09874 2-1014 limits assumed): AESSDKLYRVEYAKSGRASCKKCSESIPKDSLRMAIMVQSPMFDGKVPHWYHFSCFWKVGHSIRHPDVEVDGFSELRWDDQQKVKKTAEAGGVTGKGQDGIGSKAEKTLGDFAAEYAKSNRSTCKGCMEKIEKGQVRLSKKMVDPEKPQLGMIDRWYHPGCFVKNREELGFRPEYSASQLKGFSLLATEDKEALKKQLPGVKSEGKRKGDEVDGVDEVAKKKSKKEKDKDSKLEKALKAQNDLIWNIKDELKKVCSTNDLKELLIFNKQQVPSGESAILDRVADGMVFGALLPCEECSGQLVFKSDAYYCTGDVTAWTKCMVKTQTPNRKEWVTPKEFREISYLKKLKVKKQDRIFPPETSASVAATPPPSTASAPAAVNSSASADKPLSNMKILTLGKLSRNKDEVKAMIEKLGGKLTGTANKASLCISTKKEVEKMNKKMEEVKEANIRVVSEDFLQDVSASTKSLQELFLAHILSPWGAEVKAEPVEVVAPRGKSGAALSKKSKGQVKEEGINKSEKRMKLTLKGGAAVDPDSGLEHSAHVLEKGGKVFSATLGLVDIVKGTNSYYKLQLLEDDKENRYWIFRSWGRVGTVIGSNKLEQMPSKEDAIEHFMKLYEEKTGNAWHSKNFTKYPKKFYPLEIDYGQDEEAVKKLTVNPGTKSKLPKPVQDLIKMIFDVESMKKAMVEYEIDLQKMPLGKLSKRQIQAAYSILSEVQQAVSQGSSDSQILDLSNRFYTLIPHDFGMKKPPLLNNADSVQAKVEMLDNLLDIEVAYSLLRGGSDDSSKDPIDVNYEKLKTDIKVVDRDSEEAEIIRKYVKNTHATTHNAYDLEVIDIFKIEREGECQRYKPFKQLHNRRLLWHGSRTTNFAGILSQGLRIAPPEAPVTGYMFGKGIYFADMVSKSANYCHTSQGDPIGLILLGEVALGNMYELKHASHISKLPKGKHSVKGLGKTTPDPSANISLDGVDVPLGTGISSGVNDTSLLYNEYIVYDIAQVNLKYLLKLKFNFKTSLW

- co-IP mass spectrometry count (ARPC4): 0
- co-IP mass spectrometry count (PUM1): 0
- co-IP mass spectrometry count (RPS3): 10
- co-IP mass spectrometry count (LSM12): 4
- co-IP mass spectrometry count (KRT6B): 370
- co-IP mass spectrometry count (PARP1): 0
B1: N-terminal FLAG tagged B3GNT2 (enzyme, human, UniProt Q9NY97 1-397, looked up)
chain: MSVGRRRIKLLGILMMANVFIYFIMEVSKSSSQEKNGKGEVIIPKEKFWKISTPPEAYWNREQEKLNRQYNPILSMLTNQTGEAGRLSNISHLNYCEPDLRVTSVVTGFNNLPDRFKDFLLYLRCRNYSLLIDQPDKCAKKPFLLLAIKSLTPHFARRQAIRESWGQESNAGNQTVVRVFLLGQTPPEDNHPDLSDMLKFESEKHQDILMWNYRDTFFNLSLKEVLFLRWVSTSCPDTEFVFKGDDDVFVNTHHILNYLNSLSKTKAKDLFIGDVIHNAGPHRDKKLKYYIPEVVYSGLYPPYAGGGGFLYSGHLALRLYHITDQVHLYPIDDVYTGMCLQKLGLVPEKHKGFRTFDIEEKNKNNICSYVDLMLVHSRKPQEMIDIWSQLQSAHLKC
notes: Overexpressed in cells and pulled down from the lysate with mouse anti-FLAG antibody; also called N-FLAG B3GNT2; N-term FLAG; not shown: N-terminal FLAG tag
